Measurements reported in patent US20250152717A1.

Biological target: KRAS-G12V8-16 peptide (…) presented by HLA-A11 (human)
Assay: cell-based or functional assay

B1: TCR 11N4A (TCR)
TCR alpha: QQKNDDQQVKQNSPSLSVQEGRISILNCDYTNSMFDYFLWYKKYPAEGPTFLISISSIKDKNEDGRFTVFLNKSAKHLSLHIVPSQPGDSAVYFCAASGVSGNTPLVFGKGTRLSVIANIQNPDPAVYQLRDSKSSDKSVCLFTDFDSQTNVSQSKDSDVYITDKCVLDMRSMDFKSNSAVAWSNKSDFACANAFNNSIIPEDTFFPSPESSCDVKLVEKSFETDTNLNFQNLSVIGFRILLLKVAGFNLLMTLRLWSS
TCR beta: GVTQTPRYLIKTRGQQVTLSCSPISGHRSVSWYQQTPGQGLQFLFEYFSETQRNKGNFPGRFSGRQFSNSRSEMNVSTLELGDSALYLCASSVGTVEQYFGPGTRLTVTEDLKNVFPPEVAVFEPSEAEISHTQKATLVCLATGFYPDHVELSWWVNGKEVHSGVCTDPQPLKEQPALNDSRYCLSSRLRVSATFWQNPRNHFRCQVQFYGLSENDEWTQDRAKPVTQIVSAEAWGRADCGFTSESYQQGVLSATILYEILLGKATLYAVLVSALVLMAMVKRKDSRG
percent of TCR 11N4A-transduced T cells responding (CD137) to peptide: > 80%
